Laboratory results: patent publication US20250215083A1 (JIANGSU HENGRUI PHARMACEUTICALS, published 2025)
Where two headings read alike, the source gives them in different places.

What was measured:
cynomolgus monkey GPRC5D [1] = target: T1, cynomolgus monkey GPRC5D (cynomolgus monkey); assay: FACS, CHOK1-cynoGPRC5D cells
T1 construct: whole, on cells; also called CynoGPRC5D; cynoGPRC5D
Experimental: (§1) To test the capacity of the GPRC5D/CD3 bispecific antibodies of the present disclosure to bind to GPRC5D, a flow cytometry assay was used in this test example to measure the capacity of the GPRC5D/CD3 bispecific antibodies to bind to the human multiple myeloma cell line MM.1R (ATCC® CRL-2975), which expresses GPRC5D, and to a stably transfected cell strain CHOK1-cynoGPRC5D, which expresses cynomolgus monkey GPRC5D. The specific procedure was as follows: The cells described above were cultured in complete culture medium containing 10% FBS, incubated in a 37° C., 5% CO₂ incubator for 2 days, and added to a cell plate at 1×10⁵ cells/well. The plate was centrifuged at 300 g for 5 min and washed once with 1% BSA. The antibodies were serially diluted to 8 concentrations and added to the cell plate at 100 μL/well. The plate was incubated at 4° C. for 1 h and washed once with 1% BSA. […] The plate was washed three times with 1% BSA, PBS was added at 100 μL/well, and plate reading was performed.

human GPRC5D [2] = target: T2, human GPRC5D (human, UniProt Q9NZD1 1-345); assay: FACS, MM.1R cells
T2 construct: whole, on cells; also called membrane surface GPRC5D
Experimental: as §1

human GPRC5D [3] = target: T2, human GPRC5D; assay: FACS, MM.1R cells; remark: listed apart in the source
Experimental: as §1

cynomolgus monkey GPRC5D [4] = target: T1, cynomolgus monkey GPRC5D; assay: FACS, CHOK1-cynoGPRC5D cells; remark: listed apart in the source
Experimental: as §1

T2 sequence (Q9NZD1 whole entry): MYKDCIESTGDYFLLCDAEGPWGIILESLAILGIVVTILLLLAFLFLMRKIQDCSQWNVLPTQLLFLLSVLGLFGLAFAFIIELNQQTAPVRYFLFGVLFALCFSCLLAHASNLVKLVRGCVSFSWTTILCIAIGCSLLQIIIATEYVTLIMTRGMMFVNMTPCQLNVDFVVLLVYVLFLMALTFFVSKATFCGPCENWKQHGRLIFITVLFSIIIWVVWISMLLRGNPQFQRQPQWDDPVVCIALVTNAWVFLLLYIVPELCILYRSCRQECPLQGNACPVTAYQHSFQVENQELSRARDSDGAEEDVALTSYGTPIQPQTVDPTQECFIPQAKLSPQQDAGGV

Row | Binder | EC50 (cynomolgus monkey GPRC5D [1]) [nM] | EC50 (human GPRC5D [2]) [nM] | Max (human GPRC5D [2]) | EC50 (human GPRC5D [3]) [nM] | EC50 (cynomolgus monkey GPRC5D [4]) [nM] | Max (cynomolgus monkey GPRC5D [4])
1 | F11-2 (bispecific antibody, formula 11) heavy: not shown light: DVVMTQTPLSLSVTPGQPASISCRSSQSLVHSSGNTYLYWYLQKPGQSPKLLIYKVSNRFSGVPDRFSGSGSGTDFTLKISRVEAEDVGVYYCSQSTHVPPLTFGQGTKLEIKRTVAAPSVFIFPPSDEQLKSGTASVVCLLNNFYPREAKVQWKVDNALQSGNSQESVTEQDSKDSTYSLSSTLTLSKADYEKHKVYACEVTHQGLSSPVTKSFNRGEC | 0.47 | 0.35 | 1.63 | 0.35 | 0.47 | 1.09
2 | F11-1 (bispecific antibody, formula 11, GPRC5D x CD3 (S107E scFv)) heavy: not shown light: DIVMTQTPLSLSVTPGQPASISCRSSQSLVHSNGNTYLYWYLQKPGQSPQLLIYKVSNRFSGVPDRFSGSGSGTDFTLKISRVEAEDVGVYYCSQSTHVPPLTFGQGTKLEIKRTVAAPSVFIFPPSDEQLKSGTASVVCLLNNFYPREAKVQWKVDNALQSGNSQESVTEQDSKDSTYSLSSTLTLSKADYEKHKVYACEVTHQGLSSPVTKSFNRGEC | 0.36 | 0.44 | 1.76 | 0.44 | 0.36 | 1.31
3 | F11-3 (bispecific antibody, formula 11) heavy: not shown light: DVVMTQTPLSLSVTPGQPASISCRSSQSLVHSQGNTYLYWYLQKPGQSPKLLIYKVSNRFSGVPDRFSGSGSGTDFTLKISRVEAEDVGVYYCSQSTHVPPLTFGQGTKLEIKRTVAAPSVFIFPPSDEQLKSGTASVVCLLNNFYPREAKVQWKVDNALQSGNSQESVTEQDSKDSTYSLSSTLTLSKADYEKHKVYACEVTHQGLSSPVTKSFNRGEC | 0.27 | 0.3 | 1.8 | 0.3 | 0.27 | 1.45
4 | F11-4 (bispecific antibody, formula 11) heavy: not shown light: DIVMTQTPLSLSVTPGQPASISCRSSQSLVHSNGNTYLYWYLQKPGQSPQLLIYKVSNRFSGVPDRFSGSGSGTDFTLKISRVEAEDVGVYYCSQSTHVPPLTFGQGTKLEIKRTVAAPSVFIFPPSDEQLKSGTASVVCLLNNFYPREAKVQWKVDNALQSGNSQESVTEQDSKDSTYSLSSTLTLSKADYEKHKVYACEVTHQGLSSPVTKSFNRGEC | 0.28 | 0.39 | 1.66 | 0.39 | 0.28 | 1.27
5 | F11-5 (bispecific antibody, formula 11) heavy: not shown light: DVVMTQTPLSLSVTPGQPASISCRSSQSLVHSSGNTYLYWYLQKPGQSPKLLIYKVSNRFSGVPDRFSGSGSGTDFTLKISRVEAEDVGVYYCSQSTHVPPLTFGQGTKLEIKRTVAAPSVFIFPPSDEQLKSGTASVVCLLNNFYPREAKVQWKVDNALQSGNSQESVTEQDSKDSTYSLSSTLTLSKADYEKHKVYACEVTHQGLSSPVTKSFNRGEC | 0.42 | 0.34 | 1.6 | 0.34 | 0.41 | 1.12
6 | F11-6 (bispecific antibody, formula 11) heavy: not shown light: DVVMTQTPLSLSVTPGQPASISCRSSQSLVHSQGNTYLYWYLQKPGQSPKLLIYKVSNRFSGVPDRFSGSGSGTDFTLKISRVEAEDVGVYYCSQSTHVPPLTFGQGTKLEIKRTVAAPSVFIFPPSDEQLKSGTASVVCLLNNFYPREAKVQWKVDNALQSGNSQESVTEQDSKDSTYSLSSTLTLSKADYEKHKVYACEVTHQGLSSPVTKSFNRGEC | 0.32 | 0.23 | 1.6 | 0.23 | 0.32 | 1.35
7 | F11-12 (bispecific antibody, formula 11) heavy: not shown light: DVVLTQSPLSLPVTLGQPASISCKSSQSLLHSTGKTYLNWLLQRPGQSPRRLIYLVSKLDSGVPDRFSGSGSGTDFTLKISRVEAEDVGVYYCAQGTHFPRTFGGGTKVEIKRTVAAPSVFIFPPSDEQLKSGTASVVCLLNNFYPREAKVQWKVDNALQSGNSQESVTEQDSKDSTYSLSSTLTLSKADYEKHKVYACEVTHQGLSSPVTKSFNRGEC | 1.6 | 1.93 | 1600 | 1.93 |  | 
8 | F11-13 (bispecific antibody, formula 11) heavy: not shown light: DIQMTQSPSSVSASVGDRVTITCKASQNVGSNVAWYQQKPGKAPKALIYSASYRYSGVPSRFSGSGSGTDFTLTISSLQPEDFATYYCHQYNSYPPTFGQGTKLEIKRTVAAPSVFIFPPSDEQLKSGTASVVCLLNNFYPREAKVQWKVDNALQSGNSQESVTEQDSKDSTYSLSSTLTLSKADYEKHKVYACEVTHQGLSSPVTKSFNRGEC | 2.21 | 1.05 | 718 | 1.05 | 2.21 | 28100
9 | F11-14 (bispecific antibody, formula 11) heavy: not shown light: DIQMTQSPSSVSASVGDRVTITCKASQNVGSNVAWYQQKPGKAPKALIYSASYRYSGVPSRFSGSGSGTDFTLTISSLQPEDFATYYCHQYNSYPPTFGQGTKLEIKRTVAAPSVFIFPPSDEQLKSGTASVVCLLNNFYPREAKVQWKVDNALQSGNSQESVTEQDSKDSTYSLSSTLTLSKADYEKHKVYACEVTHQGLSSPVTKSFNRGEC | 1.86 | 0.88 | 633 | 0.88 | 1.86 | 25800
10 | F11-15 (bispecific antibody, formula 11) heavy: not shown light: DIQMTQSPSSVSASVGDRVTITCKASQNVGSNVAWYQQKPGKSPKALIYSASYRYSGVPSRFSGSGSGTDFTLTISSLQPEDFAEYYCHQYNSYPPTFGQGTKLEIKRTVAAPSVFIFPPSDEQLKSGTASVVCLLNNFYPREAKVQWKVDNALQSGNSQESVTEQDSKDSTYSLSSTLTLSKADYEKHKVYACEVTHQGLSSPVTKSFNRGEC | 1.45 | 0.89 | 693 | 0.89 | 1.45 | 24000
11 | F11-16 (bispecific antibody, formula 11) heavy: not shown light: DIQMTQSPSSVSASVGDRVTITCKASQNVGSNVAWYQQKPGKSPKALIYSASYRYSGVPSRFSGSGSGTDFTLTISSLQPEDFAEYYCHQYNSYPPTFGQGTKLEIKRTVAAPSVFIFPPSDEQLKSGTASVVCLLNNFYPREAKVQWKVDNALQSGNSQESVTEQDSKDSTYSLSSTLTLSKADYEKHKVYACEVTHQGLSSPVTKSFNRGEC | 2.95 | 0.94 | 678 | 0.94 | 2.95 | 25200
12 | F4-4 (bispecific antibody, formula 4) heavy 1: not shown light 1: not shown heavy 2: EVQLVESGGGLVQPGGSLRLSCAASGFTFTDYYLSWVKQAPGKGLEWVAFIRNRAKGYTTEYSASVKGRFTISRDNSKNSLYLQMNSLRAEDTAVYYCARMGGKGWHFDVWGQGTTVTVSSASTKGPSVFPLAPSSKSTSGGTAALGCLVKDYFPEPVTVSWNSGALTSGVHTFPAVLQSSGLYSLSSVVTVPSSSLGTQTYICNVNHKPSNTKVDKKVEPKSCDKTHTCPPCPAPEAAGGPSVFLFPPKPKDTLMISRTPEVTCVVVDVSHEDPEVKFNWYVDGVEVHNAKTKPREEQYNSTYRVVSVLTVLHQDWLNGKEYKCKVSNKALPAPIEKTISKAKGQPREPQVCTLPPSRDELTKNQVSLSCAVKGFYPSDIAVEWESNGQPENNYKTTPPVLDSDGSFFLVSKLTVDKSRWQQGNVFSCSVMHEALHNHYTQKSLSLSPGK light 2: DVVMTQSPLSLPVTPGEPASISCRSSQSIVHSNRNTYLEWYLQKPGQSPKLLIYKVSNRFSGVPDRFFGSGSGTDFTLKINRVEAEDVGVYYCFQGSHVPFTFGGGTKVEIKRTVAAPSVFIFPPSDEQLKSGTASVVCLLNNFYPREAKVQWKVDNALQSGNSQESVTEQDSKDSTYSLSSTLTLSKADYEKHKVYACEVTHQGLSSPVTKSFNRGEC | 3.15 | 12.1 | 13600 | 12.1 | 3.15 | 74900
13 | F4-5 (bispecific antibody, formula 4) heavy 1: not shown light 1: not shown heavy 2: EVQLVESGGGLVQPGGSLRLSCAASGFTFTDYYLSWVKQAPGKGLEWVAFIRNRAKGYTTEYSASVKGRFTISRDNAQNSLYLQMNSLRAEDTAVYYCARMGGKGWHFDVWGQGTTVTVSSASTKGPSVFPLAPSSKSTSGGTAALGCLVKDYFPEPVTVSWNSGALTSGVHTFPAVLQSSGLYSLSSVVTVPSSSLGTQTYICNVNHKPSNTKVDKKVEPKSCDKTHTCPPCPAPEAAGGPSVFLFPPKPKDTLMISRTPEVTCVVVDVSHEDPEVKFNWYVDGVEVHNAKTKPREEQYNSTYRVVSVLTVLHQDWLNGKEYKCKVSNKALPAPIEKTISKAKGQPREPQVCTLPPSRDELTKNQVSLSCAVKGFYPSDIAVEWESNGQPENNYKTTPPVLDSDGSFFLVSKLTVDKSRWQQGNVFSCSVMHEALHNHYTQKSLSLSPGK light 2: DVVMTQSPLSLPVTPGEPASISCRSSQSIVHSNRNTYLEWYLQKPGQSPKLLIYKVSNRFSGVPDRFFGSGSGTDFTLKINRVEAEDVGVYYCFQGSHVPFTFGGGTKVEIKRTVAAPSVFIFPPSDEQLKSGTASVVCLLNNFYPREAKVQWKVDNALQSGNSQESVTEQDSKDSTYSLSSTLTLSKADYEKHKVYACEVTHQGLSSPVTKSFNRGEC | 3.16 | 12.8 | 13400 | 12.8 | 3.16 | 71300
